In article PMC9704045, “Qualification of a Biolayer Interferometry Assay to Support AZD7442 Resistance Monitoring” (Microbiology Spectrum, 2022):

Target: T1, wild-type HexaPro (D614) SARS-CoV-2 spike trimer (SARS-CoV-2, wild type (D614), stabilised)
T1 construct: also called wild-type trimer
Experiment: BLI; Octet Red384; […]; analyte ([…]; HBS-EP+ buffer; 1:1 binding model
Conditions: one partner purified

B1: tixagevimab (AZD8895), full-length IgG (antibody, V domains shown)
VH: QMQLVQSGPEVKKPGTSVKVSCKASGFTFMSSAVQWVRQARGQRLEWIGWIVIGSGNTNYAQKFQERVTITRDMSTSTAYMELSSLRSEDTAVYYCAAPYCSSISCNDGFDIWGQGTMVTVSS
VL: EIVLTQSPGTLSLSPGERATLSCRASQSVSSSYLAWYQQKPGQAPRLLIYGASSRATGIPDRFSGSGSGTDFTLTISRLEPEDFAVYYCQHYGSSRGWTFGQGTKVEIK
notes: also called component of AZD7442 (Evusheld); copies: 2 + 2
- Kd: 0.491 nM
